Reference: publication PMC4756287

Columns and labels:
[1] = target: Lhcb1,2 (major components of LHCII trimers); test: native gel or EMSA; BN-PAGE of purified LHCII trimers (3 μg of Chl) solubilized in 0.3, 0.6 and 1% α-DDM
[2] = target: Lhcb1,2 (major components of LHCII trimers); test: native gel or EMSA; BN-PAGE (4-12.5%) followed by Tricine-SDS PAGE (2D-PAGE), Coomassie; isolated thylakoids, 8 μg Chl, 0.5 mg/ml Chl in 25 mM BisTris/HCl pH 7.0, 20% glycerol, solubilized with 1% α-DDM (0.6 and 1.5% as controls); plants grown under GL200, GL600, GL1800 or shifted 0.5, 2, 6 h to GL1800
[3] = target: Photosystem II core (C) (Arabidopsis thaliana (endogenous in leaf thylakoids)) (UniProt P83755); test: as above

Row | Substance | stoichiometry N [1] | stoichiometry N [2] | stoichiometry N [3]
1 | Lhcb1,2 (major components of LHCII trimers) | 3 | 3 | –
2 | Photosystem II core (C) (from UniProt P83755 1-344; P56761 1-353; P56777 1-508; P56778 15-473; P23321 86-332) (complex) | – | – | 2
